{"source": "patent EP4703474A1", "about": "“ANTI-LRRC15 ANTIBODY” (priority 2023, dated 2024)", "molecules": {"B1": {"name": "H02L01-V1-PBD (conjugate)", "heavy": "EVQLVESGGGLVQPGGSLRLSCAASGFTFRDYYMAWVRQAPGKGLEWVSSIGFDESRTYYADSVKGRFTISRDDSKNTLYLQMNSLRAEDTAVYYCARHGVSKYSGDNWFAYWGQGTLVTVSSASTKGPSVFPLAPSSKSTSGGTAALGCLVKDYFPEPVTVSWNSGALTSGVHTFPAVLQSSGLYSLSSVVTVPSSSLGTQTYICNVNHKPSNTKVDKKVEPKSCDKTHTCPPCPAPEAAGGPSVFLFPPKPKDTLMISRTPEVTCVVVDVSHEDPEVKFNWYVDGVEVHNAKTKPREEQYNSTYRVVSVLTVLHQDWLNGKEYKCKVSNKALAAPIEKTISKAKGQPREPQVYTLPPSREEMTKNQVSLTCLVKGFYPSDIAVEWESNGQPENNYKTTPPVLDSDGSFFLYSKLTVDKSRWQQGNVFSCSVMHEALHNHYTQKSLSLSPGK", "light": "DIQMTQSPSSLSASVGDRVTITCKSSQGLLYSGDQKNYLAWYQQKPGKAPKLLIYWASTRQSGVPSRFSGSGSGTDFTLTISSLQPEDFATYYCQQYYDPPYTFGQGTKVEIKRTVAAPSVFIFPPSDEQLKSGTASVVCLLNNFYPREAKVQWKVDNALQSGNSQESVTEQDSKDSTYSLSSTLTLSKADYEKHKVYACEVTHQGLSSPVTKSFNRGEC"}}, "key": {"[1]": {"tested_on": "Fibrosarcoma cell line HT-1080", "experiment": "In vivo antitumor effect, HT-1080 subcutaneous transplant model", "details": "0.4 mg/kg, tail vein, on Day 7, female SCID mice", "protocol": "(§1) The antitumor effects of the antibody-drug conjugates were evaluated by using animal models in which cells of a human tumor cell line had been transplanted into immunodeficient mice, or cells of a mouse tumor cell line had been transplanted into immunocompetent mice. 4 to 6 Week-old SCID mice (CB17/Icr-Prkdc[scid]/CrlCrlj, Jackson Laboratory Japan, Inc.), NSG mice (NOD.Cg-Prkdcscid Il2rgtm1Wjl/SzJ, Jackson Laboratory Japan, Inc.), or B6J mice (C57BL/6J, Jackson Laboratory Japan, Inc.) were habituated for 3 days or more under SPF conditions before experimental use. The mice were fed with sterilized solid feed and given sterilized tap water. The major and minor diameters of the transplanted tumors were measured twice a week with an electronic digital caliper (Mitutoyo Corporation), and the estimated tumor volume was calculated using the following formula. Estimated tumor volume (mm^3) = 1/2 × major diameter (mm) × [minor diameter (mm)]^2 All antibody-drug conjugates were diluted with ABS and administered into the tail vein at doses shown in each Example. In addition, ABS (vehicle) or control hIgG-PBD prepared in Reference Example 4 was administered as the control group, in a similar manner. 5 to 6 Mice were used per group in the experiment. To analyze the LRRC15 expression in mouse tumor models, immunohistochemical staining of LRRC15 was performed. […]"}, "[2]": {"tested_on": "Gastric carcinoma cell line NCI-N87", "experiment": "In vivo antitumor effect, NCI-N87 subcutaneous transplant model", "details": "0.4 mg/kg, tail vein, on Day 10, female SCID mice", "protocol": "as §1"}}}
{"molecule": "B1", "values": [{"measurement": "antitumor effect (estimated tumor volume)", "setting": "[1]", "value": "antitumor activity higher than that of the vehicle and control hIgG-PBD"}, {"measurement": "antitumor effect (estimated tumor volume)", "setting": "[2]", "value": "antitumor activity higher than that of the vehicle"}]}
